Reference: patent US20160186149A1
One block for each binder: values may come before it.

How the values were obtained:
[1] = molecular target: mannose-6-phosphate (M6P) receptor; experiment: M6P receptor plate binding assay: receptor coated at 4 ug/mL, GALNS 0.16-10 nM, bound GALNS read by enzyme activity, single-site binding fit
[2] = molecular target: mannose-6-phosphate (M6P) receptor; experiment: M6P receptor affinity column (Affi-Gel 15), 6 ug GALNS loaded, eluted with mannose-6-phosphate gradient, quantified by GALNS ELISA
[3] = molecular target: mannose-6-phosphate (M6P) receptor; experiment: M6P receptor plate binding assay

- Kd [1]: 2.4 nM
- M6P Receptor Column Binding: % Bound [2]: 56%
B1: recombinant human N-acetylgalactosamine-6-sulfatase (GALNS), purified, produced from G71S clone 4 co-expressing human SUMF1 (enzyme)
chain: APQPPNILLLLMDDMGWGDLGVYGEPSRETPNLDRMAAEGLLFPNFYSANPLCSPSRAALLTGRLPIRNGFYTTNAHARNAYTPQEIVGGIPDSEQLLPELLKKAGYVSKIVGKWHLGHRPQFHPLKHGFDEWFGSPNCHFGPYDNKARPNIPVYRDWEMVGRYYEEFPINLKTGEANLTQIYLQEALDFIKRQARHHPFFLYWAVDATHAPVYASKPFLGTSQRGRYGDAVREIDDSIGKILELLQDLHVADNTFVFFTSDNGAALISAPEQGGSNGPFLCGKQTTFEGGMREPALAWWPGHVTAGQVSHQLGSIMDLFTTSLALAGLTPPSDRAIDGLNLLPTLLQGRLMDRPIFYYRGDTLMAATLGQHKAHFWTWTNSWENFRQGIDFCPGQNVSGVTTHNLEDHTKLPLIFHLGRDPGERFPLSFASAEYQEALSRITSVVQQHQEALVPAQPQLNVCNWAVMNWAPPGCEKLGKCLTPPESIPKKCLWSH
modifications: Cys at position 53 of the precursor (position 79 of SEQ ID NO:4) converted to Calpha-formylglycine (FGly), about 90%; N-linked glycosylation at Asn178 (bis-phosphorylated mannose 7, BPM7) and Asn397 (oligomannose-type), precursor numbering; 0.58 mol M6P (BPM7)/mol GALNS

- Kd [3]: 5.7 nM
B2: recombinant human N-acetylgalactosamine-6-sulfatase (GALNS), purified, produced from G71S clone C2 co-expressing human SUMF1 (enzyme)
chain: B1 chain
modifications: Cys at position 53 of the precursor (position 79 of SEQ ID NO:4) converted to Calpha-formylglycine (FGly); N-linked glycosylation at Asn178 (BPM7) and Asn397; 0.69 mol M6P/mol GALNS
